Assay results reported in US10857214B2, “Compositions and methods for treating gluten intolerance and disorders arising therefrom” (Codexis, Inc., priority 2015, dated 2020).
Square brackets hold non-standard residues; d marks the D form. Peptide text beside a SMILES is read from it. * marks the point of attachment. Sta = CC(C)C[C@H](N)[C@@H](O)CC(=O)O; Isovaleryl = CC(C)CC(=O)*

Assays:
[1] = test system: Nepenthes enzymes; assay: enzyme inhibition testing, BSA digestion by Nepenthes enzymes, SDS-PAGE; type: biochemical; conditions: BSA 1 mg/ml, 0.12 μM Nepenthes enzymes, 15 min at 37° C.; inhibitors at 1 mM
Method: Inhibitors: PMSF (phenylmethylsulfonyl fluoride), P (pepstatin), L (leupeptin), E (EDTA and EGTA), DTT (dithiothreitol), ZPP (Z-Pro-Pro-aldehyde-dimethyl acetal). All inhibitor concentrations at 1 mM except where noted. Extract: fluid protein extract, M: lane markers. For enzyme inhibition testing, bovine serum albumin (1 mg/ml) was digested with 0.12 μM Nepenthes enzymes for 15 min at 37° C., quenched by brief boiling and then analyzed by 10% SDS-PAGE. The enzymes were pretreated with controls and inhibitors at 4° C. for 2 days prior to digestion experiments. PMSF, pepstatin, leupeptin, EDTA, EGTA, DTT from Sigma-Aldrich, and ZPP (Z-Pro-Pro-aldehyde-dimethyl acetal) from Bachem.

[2] = test system: protein standards; assay: cleavage preferences on protein standards, LC-MS/MS; type: biochemical
Method: C-terminal cleavage preferences (P1 position) as a function of storage time at elevated temperature. Fluid concentrate was incubated at 37° C. for 0-7 days. […] Data were collected from 2-minute in-solution digestions of protein standards at 37° C. (pH 2.5), and cleavage preferences were determined using LC-MS/MS methods. For each amino acid, cleavage preferences were estimated by calculating the number observed terminal residues relative to the total number of residues, in percent.
Data were generated and collected as described for FIG. 1A.
Data are shown as relative % cleavage to the total, as defined above, using LC-MS/MS data from a set of protein standards. Samples were digested in solution for 5 minutes at 37° C. in this comparison, for all three enzyme preparations.
Data are provided as described for FIG. 1C.
Data was generated using HCD fragmentation on an LC-Orbitrap Velos instrument, and data searched against the sequence of APLF in Mass Spec Studio assuming no enzyme specificity, and results were cut off at a peptide false discovery rate (FDR) of 0.5%. Figure discloses SEQ ID NO: 87.

[3] = test system: crude gliadin; assay: SDS-PAGE and proteomic LC-MS/MS analysis of crude gliadin digests; type: biochemical, Triticum aestivum; conditions: crude gliadin slurry digested with purified neprosin alone
Method: Digestions at pH 2.5 and 37° C., for 90 min. All concentrations in μM. M: Molecular weight markers, and gliadin: total crude gliadin in the absence of protease. […] Peptide data from LC-MS/MS runs, with intensities obtained using Protein Deconvolution 1.0. […] A stock gliadin slurry of 20-50 mg/ml was prepared in acidic solution (100 mM glycine HCl, pH 2.5) and briefly sonicated to further break up large particulates and promote suspension. Digestions of 10 mg/mL gliadin slurries were initiated by addition of enzyme (pepsin, fluid enzymes or both) and held at 37° C. with gentle rotation. Digest progress was monitored by gravimetric analysis, optical transmission, SDS-PAGE and mass spectrometry. For gravimetric analysis, digests were quenched by boiling and treated with TCA/chloroform, followed by centrifugation to recover undigested or poorly digested protein. For monitoring with optical transmission, digestion reactions were conducted in 96-well plate with ≥3 replicates of each reaction condition, and turbidity monitored at 595 nm at 37° C. every 2 minutes, for 90 minutes (SpectraMax plate reader, Molecular Devices). The plate was shaken at medium speed briefly between measurements. The digests were quenched after 90 min reaction by boiling for 10 minutes (confirmed to have no impact on digestion profile, a posteriori). An aliquot of the reaction mixture was analyzed on an 8% SDS-PAGE gel. The remaining amount was centrifuged and the supernatant was analyzed by mass spectrometry. Supernatant was analyzed by data-dependent LC-MS/MS, in two 1-hour reversed phase gradient runs, configured for top-10 ion selection using CID in a high/low configuration. In one run, ion selection was restricted to 2+ and higher charge states. In the other run, ion selection was applied to 1+ charge states only. Data from both runs were combined and searched against all UniprotKB/Swiss-Prot entries for gliadin and glutenin from Triticum aestivum (25 proteins), using Mascot v2.3, configured for non-specific digestions and filtered for peptide hits with p<0.05. For estimation of peptide size distribution, all LC-MS spectra were combined and deconvoluted in Protein Deconvolution v1.0, with appropriate settings. For label-free quantitative analysis using the subset of the digest identified in the database search, the hit list was combined with the raw data in Mass Spec Studio and used to generate a set of peptide ion chromatograms, integrated over all isotopes to determine a weight-average intensity for each peptide sequence identified.

[4] = test system: NOD DQ8 mice; assay: transgenic NOD/HLA-DQ8 mouse model of gliadin sensitivity

Row | Molecule | suppression of enzyme activity by proteolytic inhibitors [1] | C-terminal (P1) cleavage specificity [2] | weighted average peptide length for the low molecular weight fraction [3] | small intestinal CD3+ intraepithelial lymphocyte (IEL) counts ([4]; gliadin codigested with pepsin 100:1 and fluid enzyme 264:1 or nepenthesin II 100:1, pepsin alone is positive control) | tolerability ([4]; sensitized mice challenged three times per week for three weeks with 5 mg treated gliadin)
1 | CC(C)CC(=O)N[C@H](C(=O)N[C@H](C(=O)N[C@@H](CC(C)C)[C@@H](O)CC(=O)N[C@@H](C)C(=O)N[C@@H](CC(C)C)[C@@H](O)CC(=O)O)C(C)C)C(C)C [Pepstatin, pepstatin] (Isovaleryl-VV[Sta]A[Sta]-OH) | could only partially suppress enzyme activity | – | – | – | –
2 | neprosin: 29 kDa prolyl endoprotease isolated from Nepenthes pitcher fluid (fraction 2), SEQ ID NO.: 1 (protein) MQAKFFTFVILSSVFYFNYPLAEARSIQARLANKPKGTIKTIKGDDGEVVDCVDIYKQPAFDHPLLKNHTLQMQPSSYASKVGEYNKLEQPWHKNGECPKGSIPIRRQVITGLPVVKKQFPNLKFAPPSANTNHQYAVIAYFYGNASLQGANATINIWEPNLKNPNGDFSLTQIWISAGSGSSLNTIEAGWQVYPGRTGDSQPRFFIYWTADGYTSTGCYDLTCPGFVQTNNYYAIGMALQPSVYGGQQYELNESIQRDPATGNWWLYLWGTVVGYWPASIYNSITNGADTVEWGGEIYDSSGTGGFHTTTQMGSGHFPTEGYGKASYVRDLQCVDTYGNVISPTANSFQGIAPAPNCYNYQFQQGSSELYLFYGGPGCQ | – | dominant Pro-X cleavage specificity | 12.5 | – | –
3 | recombinant nepenthesin I: recombinant aspartic protease of Nepenthes, SEQ ID NO.: 21 (protein) NGPSGVETSVYAGDGEYLMNLSIGTPAQPFSAIMDTGSDLIWTQCQPCTQCFNQSTPIFNPQGSSSFSTLPCSSQLCQALSSPTCSNNFCQYTYGYGDGSETQGSMGTETLTFGSVSIPNITFGCGENNQGFGQGNGAGLVGMGRGPLSLPSQLDVTKFSYCMTPIGSSTPSNLLLGSLANSVTAGSPNTTLIQSSQIPTFYYITLNGLSVGSTRLPIDPSAFALNSNNGTGGIIIDSGTTLTYFVNNAYQSVRQEFISQINLPVVNGSSSGFDLCFQTPSDPSNLQIPTFVMHFDGGDLELPSENYFISPSNGLICLAMGSSSQGMSIFGNIQQQNMLVVYDTGNSVVSFASAQCGAS | – | absence of C-terminal proline (P) cleavage | – | – | –
4 | recombinant nepenthesin II: recombinant aspartic protease of Nepenthes, SEQ ID NO.: 20 (protein) QSSSGIETPVYAGDGEYLMNVAIGTPDSSFSAIMDTGSDLIWTQCEPCTQCFSQPTPIFNPQDSSSFSTLPCESQYCQDLPSETCNNNECQYTYGYGDGSTTQGYMATETFTFETSSVPNIAFGCGEDNQGFGQGNGAGLIGMGWGPLSLPSQLGVGQFSYCMTSYGSSSPSTLALGSAASGVPEGSPSTTLIHSSLNPTYYYITLQGITVGGDNLGIPSSTFQLQDDGTGGMIIDSGTTLTYLPQDAYNAVAQAFTDQINLPTVDESSSGLSTCFQQPSDGSTVQVPEISMQFDGGVLNLGEQNILISPAEGVICLAMGSSSQLGISIFGNIQQQETQVLYDLQNLAVSFVPTQCGAS | – | absence of C-terminal proline (P) cleavage | – | significant reductions in IEL counts, to levels indistinguishable from the gliadin-free diet control | well tolerated
